This note sets out measurements from the nanobody polyreactivity screen of Harvey et al. (2022).

This series in a line: yeast display, Sf9 membrane polyspecificity reagent, FACS + sequencing; frameworks hold sequencing errors. Put shortly:
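Nanobodies from a synthetic yeast display library (Saccharomyces cerevisiae BJ5465), induced 36–48 hours with galactose, were stained 1 hour at 4 °C with 10% biotinylated, detergent-solubilized Sf9 membrane reagent, enriched on streptavidin microbeads, then FACS-sorted. Anti-HA (expression) and streptavidin (reagent binding) fluorescence set low and high (top ~1%) gates. Polyreactivity labels come from the gate of origin. Genes were colony-PCR amplified, MiSeq 2 × 250 sequenced and filtered by CDR length.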
On to “QVQLVESGGGLVQAGGSLRLSCAASGRIFTYNAMGWYRQAPGKERELVASINLDGDSTYYADSVKGRFTISRDNAKKTVYLQMNSLKTEETAVYYCAVPGATSYFAYDSWGQGTQVTVSS”, for which the “polyreactivity (PSR sort gate)” value is listed as “low polyreactivity”.

In the case of “QDQLVESGGGLVQAGGSLGLSCAASGLTFSYYAMAWYRQAPGKERELVAAIDYSGGTTYADSVKGRFTISRDNAKNTVYLQMNSLKPEDTAVYYCADAPDGWFASGDEYWGQGTQVTVSS”, the “polyreactivity (PSR sort gate)” value is on record as “high polyreactivity”.

In the case of “QVQLVESGGGLVQAGGSLRLSCAASGFTYKYYAMGWYRQAPGKERELVAAIRRSAGSTNYADSVKGRFTISRDNAKNTVYLQMNSLKPEDTAVYYCNTVGTRQPMDYWGQGTQVTVSS”, the “polyreactivity (PSR sort gate)” value was “high polyreactivity”.

With “QVQLVESGGGLVQAGGSLRLSCAASGFTFLRYAMGWYRQAPGKERELVAAISTSGGRTYYADSVKGRFTISRDNAKNTVYLQMNSLKPEDTAVYYCNAAGGYRTSPSDYWGQGTQVTVSS”, the “polyreactivity (PSR sort gate)” value is recorded as “high polyreactivity”.

“QVQLVESGGGLVQAGGSLRLSCAASGITFLSNAMGWYRQAPGKERELVAAISRGGGTTYYADSVKGRFTISRDNAKNTVYLQMNSLKPEDTAVYYCATESTHTRRSWYEYWGQGTQVTVSS”: the “polyreactivity (PSR sort gate)” value is reported as “high polyreactivity”.

For “QVQLVESGGGLVQAGGSLRLSCAASGSTFAPYAMGWYRQAPGKERELVAAITWRGGSTYYADSVKGRFTISRDNAKYTVYLQMNSLKPEDTAVYYCNADGYVPDYEYWGQGTQVTVSS”, the “polyreactivity (PSR sort gate)” value was “high polyreactivity”.

For the sequence “QVQHVESGGGLVQAGGSLRLSCAASGITFGRNTKGWYRQAPGKERELVAAIDSGGNTYADSVKGRFTISRDNAKNTVYLQMNSLKPEDTAVYYCAVDGGEFSSYGYWGQGTQVTVSS”, the “polyreactivity (PSR sort gate)” value is recorded as “low polyreactivity”.

With “PVQLLESGRGLVQAGGRLRLSCAASGINFKYNAMGWYRQAPGKERELVAAISWRGGSTYYADSVKGRFTISRDNAKNTVSLQMNSLKPEDTAVYSCAANLAGSSYYDWGQGTQVTVSS”, the “polyreactivity (PSR sort gate)” value is reported as “low polyreactivity”.

Turning to “QVQLVESGGGLVQAGGSLRLSCAASGSTFSTNAMGWYRQAPGKERELVASITRSGGSTYYADSVKGRFTISRDNAKNTFYLLMNSLKPEDTAVYYCNADGYYDYDYGYWGQGTQVTVSS”, the “polyreactivity (PSR sort gate)” value is reported as “low polyreactivity”.

As to “QVQLVESGGGLVQAGGSLRLSSAASGSTFVNYVMGWYRQAPGKERELVAAISRRGTSTSYADSVKGRFTISRDNAKNTVYLQMNSLKPVDTAVYYCITLRQLGRPFYYWGQGTQVTVSS”, the “polyreactivity (PSR sort gate)” value was “high polyreactivity”.

Take “QVQLVESGGGLVQAGGSLRLSCAASGFIFYANAMGWYRQAPGKERELVAAITWSGSRTYYADSVKGRFTISRDNAKNTVYLQMNSLKPEDTAVYYCNKDWYVGSFGYPEDYWGQGTQVTVSS”: the “polyreactivity (PSR sort gate)” value is listed as “low polyreactivity”.

With “QVQLVESGGGLVQAGGSLRLSCAASGFTFYRYAMGWYRQAPGKERELVAAISWRGTSTYYADSVKGRFTISRDNAKNTVYLQMNSLKPEDTAVYYCAAPRNFGPYTSPRQPLYNYWGQGTQVTVSS”, the “polyreactivity (PSR sort gate)” value was “high polyreactivity”.

On to “QVQLVESRGGLVQAGGSLRLSCAASGRIFRYYAMGWYRQAPGTEREMVAAIRYRGASTYYADSVKGRFTISRDNAKNTVYLQMNSLKPEDTAVYYCAAYDYHPYRIVGASRSDYWGQGTQVTVSS”, for which the “polyreactivity (PSR sort gate)” value is given as “high polyreactivity”.

On to “QVQLVESGGGLVQAGGSLRLSCASSGSIFTINAMGWYRQAPGKERELVAAIPYSGGFTYYADSVKGRFTISRDNAKNTVYLQMNSLKPEDTAVYYCAAVRGYPSRITSYVYTYGYWGQGTQVTVSS”, for which the “polyreactivity (PSR sort gate)” value was “low polyreactivity”.

Regarding “QVQLVESGGGLVQAGGSLRLSCAASGNIFGIYTMGWYRQAPGKEREFFAVISLSGTSTYYADSVKGRFTISRDNAKNTVYLQMNSLKPEDTAVYYCNARTPHNKGRRRAYDYWGLGTQVTVSS”, the “polyreactivity (PSR sort gate)” value is recorded as “high polyreactivity”.

In the case of “QDHLVESGGGLVQAGGSLRLSCAASGRIFTPNAMGWYRQAPGKERELVAAITSGGSTNYADSVKGRFTISRDNAKNTVYLQMNSLKPQDTAVYYCAVRYYYCSKKRNYWGQGTHVTVSS”, the “polyreactivity (PSR sort gate)” value is given as “high polyreactivity”.
